Laboratory results taken from patent US20200262885A1 (ANTAROS MEDICAL, published 2020).

How the values were obtained:
human glucagon receptor = human glucagon receptor (human, UniProt P47871 26-477); assay: cell-based or functional assay
human GLP-1 receptor = human GLP-1 receptor (human, UniProt P43220 24-463); assay: cell-based or functional assay

| Molecule | EC50 hGLUC R (human glucagon receptor) [pM] | EC50 hGLP-1 R [pM] (human GLP-1 receptor) | EC50 hGLUC R [pM] (human glucagon receptor) |
| --- | --- | --- | --- |
| HSQGTFTSDYSKYLDSRRAQDFVQWLM^27-N-T-C(VS-DO3A)-NH2 (peptide) | 0.7 | – | – |
| XSQGTFXSDLAKQXESRRAQDFIEWLLATGPESGAPPPSX (Tza at 1; Aib at 7; Nle at 14; Cys(VS-DO3A) at 40; C-terminal amide) [SEQ ID NO: 31] | – | 1e+07 | – |
| XSQGTFXSDLSKQXESRRAKDFIEWLLATGPESGAPPPSX (Tza at 1; Aib at 7; Nle at 14; Cys(VS-DO3A) at 40; C-terminal amide) [SEQ ID NO: 51] | – | 1e+07 | – |
| XSQGTFTSDYSKQLESRRAQEFIEWLLAGGPESGAPPPSX (Tza at 1; Cys(VS-DO3A(Ga)) at 40; C-terminal -OH) [SEQ ID NO: 80] | – | 5130 | 0.7 |
| XSQGTFTSDISKQXESRRAQEFIEWLLATGPESGAPPPSX (Tza at 1; Nle at 14; Cys(VS-DO3A(Ga)) at 40; C-terminal amide) [SEQ ID NO: 36] | – | 65300 | – |
| XSQGTFTSDYSKQLESRRAQEFIEWLLAGGPESGAPPPSX (Tza at 1; Cys(mal-NOTA(Ga)) at 40; C-terminal amide) [SEQ ID NO: 9] | – | 4200 | 1 |
| XSQGTFTSDYSRQLESRRAQEFIEWLLATGPESGAPPPSX (Tza at 1; Lys(VS-DO3A(Ga)) at 40; C-terminal amide) [SEQ ID NO: 44] | – | – | 0.8 |
| XSQGTFTSDTSKQLESRRAQEFIEWLLATGPESGAPPPSX (Tza at 1; Cys(VS-DO3A(Ga)) at 40; C-terminal amide) [SEQ ID NO: 48] | – | 297000 | 60.1 |
| XSQGTFXSDLSKQXESRRAQDFIEWLLATGPESGAPPPSX (Tza at 1; Aib at 7; Nle at 14; Cys(mal-NOTA) at 40; C-terminal amide) [SEQ ID NO: 16] | – | 1e+07 | – |
| XSQGTFTSDTSKQLESRRAQEFIEWLLATGPESGAPPPSX (Tza at 1; Cys(VS-DO3A) at 40; C-terminal amide) [SEQ ID NO: 47] | – | 1e+07 | – |
| XSQGTFTSDXSKQXESRRAQEFIEWLLXGGPESGAPPPSX (Tza at 1; Tle at 10; Nle at 14; Bal at 28; Cys(VS-DO3A(Ga)) at 40; C-terminal amide) [SEQ ID NO: 12] | – | 12900 | 0.7 |
| XSQGTFTSDYSKQLESRRAQEFIEWLLAGGPESGAPPPSX (Tza at 1; Cys(mal-DOTA(Ga)) at 40; C-terminal amide) [SEQ ID NO: 7] | – | 7530 | – |
| XSQGTFTSDYSKQLESRRAQEFIEWLLAGGPESGAPPPSX (Tza at 1; Cys(mal-NODAGA(Ga)) at 40; C-terminal amide) [SEQ ID NO: 10] | – | – | 0.9 |
| XSQGTFTSDYSKQLESRRAQEFIEWLLATGPESGAPPPSX (Tza at 1; Cys(VS-DO3A(Ga)) at 40; C-terminal amide) [SEQ ID NO: 34] | – | 18800 | 0.8 |
| XSQGTFXSDLSKQXESRRAQDFIEWLLATGPESGAPPPSX (Tza at 1; Aib at 7; Nle at 14; Cys(mal-NODAGA) at 40; C-terminal amide) [SEQ ID NO: 17] | – | 1e+07 | – |
| XSQGTFTSDYSKQLESRRAQEFIEWLLAGGPESGAPPPSX (Tza at 1; Cys(VS-DO3A(Ga)) at 40; C-terminal amide) [SEQ ID NO: 8] | – | 4130 | – |
| XXQGTFTSDYSKQLDEQRAQEFIEWLLATGPESGAPPPSX (Tza at 1; D-Ser at 2; Cys(VS-DO3A(Ga)) at 40; C-terminal amide) [SEQ ID NO: 86] | – | 115000 | 0.9 |
